Reference: paper PMC7397750, “Angiopoietin-like protein 8 differentially regulates ANGPTL3 and ANGPTL4 during postprandial partitioning of fatty acids[S]” (Journal of Lipid Research, 2020)
Where “and” joins values, the source holds several entries; their conditions need not be identical. Equal values may be shown once.

T1: ANGPTL8 (angiopoietin-like protein 8), endogenous in human serum (human (endogenous in serum), UniProt Q6UXH0 22-198)
T1 construct: ANGPTL8, human, circulating protein of donor serum; also called ANGPLT8; source: endogenous, human serum
T1 sequence (looked up): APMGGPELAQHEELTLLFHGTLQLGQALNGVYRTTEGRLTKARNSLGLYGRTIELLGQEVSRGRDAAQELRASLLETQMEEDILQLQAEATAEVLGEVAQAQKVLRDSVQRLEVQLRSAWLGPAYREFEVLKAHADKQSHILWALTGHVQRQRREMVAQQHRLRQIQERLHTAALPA

B1: C-terminal HIS-tagged ANGPTL3 (natural protein, human, UniProt Q9Y5C1 17-460, looked up)
chain: SRIDQDNSSFDSLSPEPKSRFAMLDDVKILANGLLQLGHGLKDFVHKTKGQINDIFQKLNIFDQSFYDLSLQTSEIKEEEKELRRTTYKLQVKNEEVKNMSLELNSKLESLLEEKILLQQKVKYLEEQLTNLIQNQPETPEHPEVTSLKTFVEKQDNSIKDLLQTVEDQYKQLNQQHSQIKEIENQLRRTSIQEPTEISLSSKPRAPRTTPFLQLNEIRNVKHDGIPAECTTIYNRGEHTSGMYAIRPSNSQVFHVYCDVISGSPWTLIQHRIDGSQNFNETWENYKYGFGRLDGEFWLGLEKIYSIVKQSNYVLRIELEDWKDNKHYIEYSFYLGNHETNYTLHLVAITGNVPNAIPENKDLVFSTWDHKAKGHFNCPEGYSGGWWWHDECGENNLNGKYNKPRAKSKPERRRGLSWKSQNGRLYSIKSTKMLIHPTDSESFE
notes: source: HEK293, transient, purified (Ni-NTA, SEC)
B2: recombinant ANGPTL3/8 complex (complex, human)
chain 1: B1 chain
chain 2: T1 sequence (looked up)
B3: C-terminal HIS-tagged ANGPTL4 (natural protein, human, UniProt Q9BY76-1 26-406, looked up)
chain: GPVQSKSPRFASWDEMNVLAHGLLQLGQGLREHAERTRSQLSALERRLSACGSACQGTEGSTDLPLAPESRVDPEVLHSLQTQLKAQNSRIQQLFHKVAQQQRHLEKQHLRIQHLQSQFGLLDHKHLDHEVAKPARRKRLPEMAQPVDPAHNVSRLHRLPRDCQELFQVGERQSGLFEIQPQGSPPFLVNCKMTSDGGWTVIQRRHDGSVDFNRPWEAYKAGFGDPHGEFWLGLEKVHSITGDRNSRLAVQLRDWDGNAELLQFSVHLGGEDTAYSLQLTAPVAGQLGATTVPPSGLSVPFSTWDQDHDLRRDKNCAKSLSGGWWFGTCSHSNLNGQYFRSIPQQRQKLKKGIFWKTWRGRYYPLQATTMLIQPMAAEAAS
B4: recombinant ANGPTL4/8 complex (complex, human)
chain 1: B3 chain
chain 2: T1 sequence (looked up)
B5: ANGPTL4 (angiopoietin-like protein 4), endogenous in human serum, N-terminally intact (natural protein, human (endogenous in serum), UniProt Q9BY76-1 26-406, looked up)
chain: B3 chain
notes: ANGPTL4, human, circulating protein of donor serum precipitated or captured with an N-terminal ANGPTL4 antibody; Full-length or N-terminal fragment; also called active ANGPTL4; source: endogenous, human serum
B6: LPL (lipoprotein lipase), avidin-tagged (enzyme)
chain: DRITGGKDFRDIESKFALRTPEDTAEDTCHLIPGVTESVANCHFNHSSKTFVVIHGWTVTGMYESWVPKLVAALYKREPDSNVIVVDWLSRAQQHYPVSAGYTKLVGQDVAKFMNWMADEFNYPLGNVHLLGYSLGAHAAGIAGSLTNKKVNRITGLDPAGPNFEYAEAPSRLSPDDADFVDVLHTFTRGSPGRSIGIQKPVGHVDIYPNGGTFQPGCNIGEALRVIAERGLGDVDQLVKCSHERSVHLFIDSLLNEENPSKAYRCNSKEAFEKGLCLSCRKNRCNNMGYEINKVRAKRSSKMYLKTRSQMPYKVFHYQVKIHFSGTESNTYTNQAFEISLYGTVAESENIPFTLPEVSTNKTYSFLLYTEVDIGELLMLKLKWISDSYFSWSNWWSSPGFDIGKIRVKAGETQKKVIFCSREKMSYLQKGKSPVIFVKCHDKSLNRKSG
modifications: biotin/Avi-type tag ('avidin-tagged') for capture on streptavidin, tag omitted; N-glycosylated. The species is not printed. The BLI methods give LPL as from Sigma, whose usual LPL is purified from …

How the values were obtained:
[1] = target: ANGPTL8 (angiopoietin-like protein 8), endogenous in human serum (human (endogenous in serum)) (UniProt Q6UXH0); experiment: affinity purification with mass spectrometry; immunoprecipitation of endogenous complexes from human serum with biotinylated anti-ANGPTL antibodies and streptavidin magnetic beads; trypsin/Lys-C digest; LC-MRM with spiked stable-isotope-labelled peptides; molar ratios from two peptides for each protein
[2] = target: B6; experiment: cell-based or functional assay
[3] = target: T1, ANGPTL8 (angiopoietin-like protein 8), …; experiment: affinity purification with mass spectrometry; immunoprecipitation of endogenous complexes from human serum with biotinylated anti-ANGPTL antibodies and streptavidin magnetic beads; trypsin/Lys-C digest; LC-MRM with spiked stable-isotope-labelled peptides; molar ratios from two peptides for each protein; conditions: partners not purified
[4] = target: B4; experiment: BLI; Octet RED96e; avidin-tagged LPL immobilised on streptavidin biosensors; 50 nM ANGPTL protein or complex; dissociation in buffer-only wells; conditions: both partners purified

ANGPTL3 (angiopoietin-like protein 3), endogenous in human serum (natural protein)
stoichiometry N (ANGPTL3 per ANGPTL8 (protein ratio)) [1]: 3.4 and 3.5

B1
IC50 of inhibition of LPL enzymatic activity; human LPL-stable expression cells, BODIPY-TG (EnzChek) substrate [2]: 26 nM

B2
IC50 of inhibition of LPL enzymatic activity; human LPL-stable expression cells, BODIPY-TG (EnzChek) substrate [2]: 0.14 nM

B3
IC50 of inhibition of LPL enzymatic activity; human LPL-stable expression cells, BODIPY-TG (EnzChek) substrate [2]: 0.29 nM
IC50 of inhibition of LPL enzymatic activity; human LPL-stable expression cells, VLDL substrate, NEFA released [2]: 0.44 nM

B4
IC50 of inhibition of LPL enzymatic activity; human LPL-stable expression cells, BODIPY-TG (EnzChek) substrate [2]: 37 nM
IC50 of inhibition of LPL enzymatic activity; human LPL-stable expression cells, VLDL substrate, NEFA released [2]: 105 nM

B5
stoichiometry N [3]: 0.8 ANGPTL4 per ANGPTL8 (protein ratio)

B6
Kd [4]: < 1 pM
koff [4]: < 1e-07 s⁻¹
kon [4]: 48000 M⁻¹ s⁻¹
